# Reference: patent publication CN116143922A (BEIJING DONGFANG BIOTECH CO LTD, dated 2023)
# B1: 抗LILRB4单克隆抗体MD-Ⅰ (mouse IgG1 heavy chain constant region, mouse Ck light chain constant region) (antibody, V domains shown)
# VH: EVQLQESGPQLVRPGTSVKLSCKASGYTFTNYWIHWVKQRPGQGLEWIGEINPTNGHTNYNEKFKSKATLTVDKSSSTAYMQLSSLTSEDSAVYYCARYTYDQDAMDYWGQGTSVTVSS
# VL: DIVITQSTSSLSASLGDRVTISCRASQDISNYLNWYQQKPDGTVKLLIYYTSRLHSGVPSRFSGSGSGTDYSLTISNLEQEDIATYFCQQGNTLPPTFGGGTKLEIKA
# notes: also called MD-I
# What was measured:
# THP-1细胞表面的LILRB4 [1] = target: T1, THP-1细胞表面的LILRB4 (human, UniProt Q8NHJ6 22-448); experiment: flow cytometry competition on THP-1 cells; MD-Ⅰ titrated, competitor FITC-labelled ApoE at 0.4 μg/mL
# T1 construct: whole, on cells; Endogenous LILRB4 on THP-1 cells; also called 人单核细胞白血病细胞(THP-1)表面LILRB4
# LILRB2 [2] = target: T2, LILRB2 (UniProt Q8N423 22-460, limits assumed); experiment: ELISA, coated LILR family protein, antibody at 50 μg/mL
# LILRA6 [3] = target: T3, LILRA6 (UniProt Q6PI73 24-447, limits assumed); experiment: as above
# LILRB3 [4] = target: T4, LILRB3 (UniProt O75022 24-443, limits assumed); experiment: as above
# LILRA4 [5] = target: T5, LILRA4 (UniProt P59901 24-446, limits assumed); experiment: as above
# LILRA3 [6] = target: T6, LILRA3 (UniProt Q8N6C8 24-439); experiment: as above
# LILRB1 [7] = target: T7, LILRB1 (UniProt Q8NHL6 24-461, limits assumed); experiment: as above
# LILRA2 [8] = target: T8, LILRA2 (UniProt Q8N149 24-449, limits assumed); experiment: as above
# LILRB4抗原 (人LILRB4蛋白胞外段) [9] = target: T9, LILRB4抗原 (人LILRB4蛋白胞外段) (human, UniProt Q8NHJ6 22-259); experiment: as above
# T9 construct: extracellular domain
# LILRA1 [10] = target: T10, LILRA1 (UniProt O75019 17-461, limits assumed); experiment: as above
# LILRA5 [11] = target: T11, LILRA5 (UniProt A6NI73 42-268, limits assumed); experiment: as above
# LILRB5 [12] = target: T12, LILRB5 (UniProt O75023 24-458, limits assumed); experiment: as above
# THP-1细胞表面的LILRB4 [13] = target: T1, THP-1细胞表面的LILRB4; experiment: cell-based or functional assay
# LILRB2 [14] = target: T2, LILRB2; experiment: ELISA, coated LILR family protein 100 ng/well, single antibody concentration
# LILRA6 [15] = target: T3, LILRA6; experiment: as above
# LILRB3 [16] = target: T4, LILRB3; experiment: as above
# LILRA4 [17] = target: T5, LILRA4; experiment: as above
# LILRA3 [18] = target: T6, LILRA3; experiment: as above
# LILRB1 [19] = target: T7, LILRB1; experiment: as above
# LILRA2 [20] = target: T8, LILRA2; experiment: as above
# LILRA1 [21] = target: T10, LILRA1; experiment: as above
# LILRA5 [22] = target: T11, LILRA5; experiment: as above
# LILRB5 [23] = target: T12, LILRB5; experiment: as above
# LILRB4抗原 (人LILRB4蛋白胞外段) [24] = target: T9, LILRB4抗原 (人LILRB4蛋白胞外段); experiment: ELISA, coated LILRB4 100 ng/well, goat anti-mouse IgG-HRP detection
# THP-1细胞表面的LILRB4 [25] = target: T1, THP-1细胞表面的LILRB4; experiment: flow cytometry on THP-1 cells, FITC goat anti-mouse IgG detection
# T6 sequence (Q8N6C8 24-439 limits assumed): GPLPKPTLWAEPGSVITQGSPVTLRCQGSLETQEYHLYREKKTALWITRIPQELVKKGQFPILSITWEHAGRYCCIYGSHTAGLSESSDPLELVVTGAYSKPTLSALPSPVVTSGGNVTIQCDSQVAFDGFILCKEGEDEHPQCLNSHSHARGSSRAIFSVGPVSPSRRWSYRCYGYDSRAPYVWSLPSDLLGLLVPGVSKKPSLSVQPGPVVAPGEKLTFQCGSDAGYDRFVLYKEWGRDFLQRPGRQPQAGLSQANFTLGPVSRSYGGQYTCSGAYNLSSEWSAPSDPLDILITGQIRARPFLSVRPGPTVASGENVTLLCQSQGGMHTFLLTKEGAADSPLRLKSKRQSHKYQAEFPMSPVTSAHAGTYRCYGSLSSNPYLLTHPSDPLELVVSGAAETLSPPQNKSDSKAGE
# T12 sequence (O75023 24-458 limits assumed): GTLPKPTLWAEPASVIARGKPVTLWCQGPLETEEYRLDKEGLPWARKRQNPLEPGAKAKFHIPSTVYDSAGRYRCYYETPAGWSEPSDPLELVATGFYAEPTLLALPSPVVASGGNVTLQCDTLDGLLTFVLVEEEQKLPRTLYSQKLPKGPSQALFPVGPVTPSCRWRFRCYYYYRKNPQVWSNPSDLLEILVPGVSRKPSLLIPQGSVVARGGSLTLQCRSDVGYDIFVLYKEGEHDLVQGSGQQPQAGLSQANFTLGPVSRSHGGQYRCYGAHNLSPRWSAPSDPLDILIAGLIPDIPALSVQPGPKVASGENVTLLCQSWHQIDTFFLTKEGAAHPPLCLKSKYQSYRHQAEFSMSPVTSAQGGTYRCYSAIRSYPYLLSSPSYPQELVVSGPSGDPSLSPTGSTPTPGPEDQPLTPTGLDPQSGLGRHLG
# T11 sequence (A6NI73 42-268 limits assumed): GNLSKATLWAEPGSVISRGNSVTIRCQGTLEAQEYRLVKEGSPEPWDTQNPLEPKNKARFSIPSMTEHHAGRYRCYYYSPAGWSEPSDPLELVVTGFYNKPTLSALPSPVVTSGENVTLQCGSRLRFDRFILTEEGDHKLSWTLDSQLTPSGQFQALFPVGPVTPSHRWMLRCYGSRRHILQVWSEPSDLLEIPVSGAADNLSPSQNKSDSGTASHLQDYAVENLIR
# T7 sequence (Q8NHL6 24-461 limits assumed): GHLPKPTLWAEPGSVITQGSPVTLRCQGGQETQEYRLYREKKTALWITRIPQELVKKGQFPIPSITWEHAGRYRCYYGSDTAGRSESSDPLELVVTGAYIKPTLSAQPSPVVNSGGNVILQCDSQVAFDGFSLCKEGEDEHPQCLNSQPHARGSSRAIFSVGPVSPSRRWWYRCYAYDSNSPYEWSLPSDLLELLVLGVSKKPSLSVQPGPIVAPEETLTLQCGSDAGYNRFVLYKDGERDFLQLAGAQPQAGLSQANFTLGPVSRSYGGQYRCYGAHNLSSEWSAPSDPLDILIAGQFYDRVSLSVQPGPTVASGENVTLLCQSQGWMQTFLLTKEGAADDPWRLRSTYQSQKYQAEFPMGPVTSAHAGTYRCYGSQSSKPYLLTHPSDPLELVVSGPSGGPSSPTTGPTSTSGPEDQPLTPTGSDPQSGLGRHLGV
# T4 sequence (O75022 24-443 limits assumed): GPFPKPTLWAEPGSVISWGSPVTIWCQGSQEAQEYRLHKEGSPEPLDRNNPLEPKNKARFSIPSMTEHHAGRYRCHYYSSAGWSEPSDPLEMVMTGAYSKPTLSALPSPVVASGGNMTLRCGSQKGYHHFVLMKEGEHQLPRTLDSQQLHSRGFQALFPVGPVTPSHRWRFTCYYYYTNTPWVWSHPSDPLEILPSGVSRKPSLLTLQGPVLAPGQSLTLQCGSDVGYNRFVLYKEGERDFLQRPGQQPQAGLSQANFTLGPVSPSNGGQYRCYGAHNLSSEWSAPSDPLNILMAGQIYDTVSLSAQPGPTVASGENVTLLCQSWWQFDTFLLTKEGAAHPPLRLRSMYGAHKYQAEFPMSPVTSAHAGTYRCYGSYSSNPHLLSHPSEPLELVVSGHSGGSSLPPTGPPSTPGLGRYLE
# T8 sequence (Q8N149 24-449 limits assumed): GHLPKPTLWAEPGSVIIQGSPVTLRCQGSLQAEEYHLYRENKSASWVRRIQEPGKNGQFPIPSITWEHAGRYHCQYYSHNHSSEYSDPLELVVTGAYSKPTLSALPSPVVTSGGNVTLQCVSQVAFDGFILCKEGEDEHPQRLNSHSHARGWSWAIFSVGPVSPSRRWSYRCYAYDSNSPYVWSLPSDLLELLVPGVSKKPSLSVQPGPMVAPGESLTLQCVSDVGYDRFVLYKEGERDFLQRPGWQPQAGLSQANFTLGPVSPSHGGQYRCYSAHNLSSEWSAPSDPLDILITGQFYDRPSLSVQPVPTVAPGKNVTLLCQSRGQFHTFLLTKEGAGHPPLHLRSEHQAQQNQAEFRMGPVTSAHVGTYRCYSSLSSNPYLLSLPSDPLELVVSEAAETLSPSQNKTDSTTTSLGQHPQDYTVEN
# T3 sequence (Q6PI73 24-447 limits assumed): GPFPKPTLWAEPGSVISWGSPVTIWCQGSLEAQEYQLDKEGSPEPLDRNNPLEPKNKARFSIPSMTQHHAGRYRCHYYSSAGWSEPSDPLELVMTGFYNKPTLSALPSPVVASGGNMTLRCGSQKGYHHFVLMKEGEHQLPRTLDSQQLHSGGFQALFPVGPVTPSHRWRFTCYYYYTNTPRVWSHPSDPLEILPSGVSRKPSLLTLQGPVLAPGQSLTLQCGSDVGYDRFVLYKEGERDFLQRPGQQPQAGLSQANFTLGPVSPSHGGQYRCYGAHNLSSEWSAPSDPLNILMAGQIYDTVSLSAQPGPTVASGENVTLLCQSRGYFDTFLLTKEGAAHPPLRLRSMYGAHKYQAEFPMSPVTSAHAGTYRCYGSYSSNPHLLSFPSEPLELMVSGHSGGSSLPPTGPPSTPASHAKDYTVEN
# T5 sequence (P59901 24-446 limits assumed): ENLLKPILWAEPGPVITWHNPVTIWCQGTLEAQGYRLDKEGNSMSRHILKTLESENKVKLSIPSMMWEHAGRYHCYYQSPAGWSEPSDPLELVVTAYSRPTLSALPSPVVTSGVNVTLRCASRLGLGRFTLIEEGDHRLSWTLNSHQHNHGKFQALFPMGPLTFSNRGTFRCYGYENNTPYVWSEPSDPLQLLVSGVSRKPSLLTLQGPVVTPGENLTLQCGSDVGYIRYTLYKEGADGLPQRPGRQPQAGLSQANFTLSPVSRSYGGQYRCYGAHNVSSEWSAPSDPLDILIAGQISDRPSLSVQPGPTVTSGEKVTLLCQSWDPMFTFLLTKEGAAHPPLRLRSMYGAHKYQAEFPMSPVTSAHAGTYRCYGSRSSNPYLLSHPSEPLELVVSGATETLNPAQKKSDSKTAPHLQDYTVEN
# T10 sequence (O75019 17-461 limits assumed): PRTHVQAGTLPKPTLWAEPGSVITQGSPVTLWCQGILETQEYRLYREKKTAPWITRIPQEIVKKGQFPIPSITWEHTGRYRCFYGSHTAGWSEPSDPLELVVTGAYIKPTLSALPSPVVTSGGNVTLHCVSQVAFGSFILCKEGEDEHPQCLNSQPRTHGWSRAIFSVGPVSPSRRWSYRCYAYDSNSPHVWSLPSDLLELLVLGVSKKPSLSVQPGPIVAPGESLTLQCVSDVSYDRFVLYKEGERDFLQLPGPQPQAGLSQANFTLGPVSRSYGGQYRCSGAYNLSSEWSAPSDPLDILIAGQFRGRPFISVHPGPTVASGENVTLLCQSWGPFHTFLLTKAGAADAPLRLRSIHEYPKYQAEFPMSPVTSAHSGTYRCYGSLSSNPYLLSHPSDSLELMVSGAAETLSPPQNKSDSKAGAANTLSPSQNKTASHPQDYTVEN
# T2 sequence (Q8N423 22-460 limits assumed): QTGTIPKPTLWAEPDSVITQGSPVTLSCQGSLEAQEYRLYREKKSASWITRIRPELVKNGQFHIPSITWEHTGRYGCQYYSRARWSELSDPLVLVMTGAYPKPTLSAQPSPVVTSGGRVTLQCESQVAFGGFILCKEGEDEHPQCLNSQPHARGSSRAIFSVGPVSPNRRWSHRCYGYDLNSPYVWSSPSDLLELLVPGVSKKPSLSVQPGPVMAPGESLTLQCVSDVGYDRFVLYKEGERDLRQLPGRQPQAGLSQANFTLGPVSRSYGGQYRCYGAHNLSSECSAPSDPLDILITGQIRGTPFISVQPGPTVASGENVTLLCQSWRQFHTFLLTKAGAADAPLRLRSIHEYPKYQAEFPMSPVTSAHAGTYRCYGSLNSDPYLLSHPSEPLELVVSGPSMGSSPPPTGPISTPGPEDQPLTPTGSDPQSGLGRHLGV
binder,measurement,setting,value
B1,IC50,THP-1细胞表面的LILRB4 [1],8.62 µg/mL
same,OD 450nm/630nm,LILRB2 [2],0.014
same,OD 450nm/630nm,LILRA6 [3],0.045
same,OD 450nm/630nm,LILRB3 [4],0.015
same,OD 450nm/630nm,LILRA4 [5],0.156
same,OD 450nm/630nm,LILRA3 [6],0.028
same,OD 450nm/630nm,LILRB1 [7],0.047
same,OD 450nm/630nm,LILRA2 [8],0.054
same,OD 450nm/630nm,LILRB4抗原 (人LILRB4蛋白胞外段) [9],2.42
same,OD 450nm/630nm,LILRA1 [10],0.075
same,OD 450nm/630nm,LILRA5 [11],0.078
same,OD 450nm/630nm,LILRB5 [12],0.056
same,IC50 of inhibition of ARG1 secretion by THP-1 cells in the presence of ApoE (精氨酸酶活性检测),THP-1细胞表面的LILRB4 [13],310 µg/mL
same,binding result,LILRB2 [14],no binding (tested: 50μg/mL)
same,binding result,LILRA6 [15],no binding (tested: 50μg/mL)
same,binding result,LILRB3 [16],no binding (tested: 50μg/mL)
same,binding result,LILRA4 [17],no binding (tested: 50μg/mL)
same,binding result,LILRA3 [18],no binding (tested: 50μg/mL)
same,binding result,LILRB1 [19],no binding (tested: 50μg/mL)
same,binding result,LILRA2 [20],no binding (tested: 50μg/mL)
same,binding result,LILRA1 [21],no binding (tested: 50μg/mL)
same,binding result,LILRA5 [22],no binding (tested: 50μg/mL)
same,binding result,LILRB5 [23],no binding (tested: 50μg/mL)
same,EC50,LILRB4抗原 (人LILRB4蛋白胞外段) [24],0.221 µg/mL
same,EC50,THP-1细胞表面的LILRB4 [25],5.09 µg/mL
